Assay [1] addresses T1, N-terminal cleavage product of endogenous USP1 (human, UniProt O94782 1-671).
T1 construct: the end at 671 is inferred from that; also called N-terminal USP1; N-terminal USP1 fragment
T1 sequence: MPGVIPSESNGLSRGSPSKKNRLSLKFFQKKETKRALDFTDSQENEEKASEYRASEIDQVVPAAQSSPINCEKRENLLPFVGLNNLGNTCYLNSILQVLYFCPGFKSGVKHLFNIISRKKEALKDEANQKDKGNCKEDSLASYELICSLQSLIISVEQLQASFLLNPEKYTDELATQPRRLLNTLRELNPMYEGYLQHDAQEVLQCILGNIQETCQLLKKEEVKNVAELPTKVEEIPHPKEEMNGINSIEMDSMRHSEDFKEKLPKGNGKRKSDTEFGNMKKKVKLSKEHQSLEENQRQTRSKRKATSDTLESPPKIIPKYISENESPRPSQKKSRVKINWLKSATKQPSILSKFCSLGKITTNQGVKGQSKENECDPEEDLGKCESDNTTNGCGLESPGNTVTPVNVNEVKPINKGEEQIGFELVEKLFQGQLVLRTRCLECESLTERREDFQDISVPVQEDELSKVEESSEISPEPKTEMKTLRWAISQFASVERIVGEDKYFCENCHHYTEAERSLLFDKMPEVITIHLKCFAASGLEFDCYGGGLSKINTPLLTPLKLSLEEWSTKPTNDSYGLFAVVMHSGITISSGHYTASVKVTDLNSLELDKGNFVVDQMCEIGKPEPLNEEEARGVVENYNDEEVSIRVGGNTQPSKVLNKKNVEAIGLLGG
The experiment in a line: anti-Flag immunoprecipitation from transiently transfected 293T cells, anti-USP1 immunoblot. As for the experimental part: (§1) The Flag-tagged proteins were immunoprecipitated from cell lysates using anti-Flag antibodies. The immunoprecipitates were analyzed using the indicated antibodies. […] The concentrations of all proteins were 10 nM.
In general terms: Immunoblotting shows a protein as a band on a membrane.

Assay [2] addresses T2, endogenous USP1, full length (HeLa and 293T cells) (human, UniProt O94782 1-785).
T2 construct: Full length endogenous protein detected in immunoprecipitates; also called Ubiquitin Specific Protease 1
T2 sequence: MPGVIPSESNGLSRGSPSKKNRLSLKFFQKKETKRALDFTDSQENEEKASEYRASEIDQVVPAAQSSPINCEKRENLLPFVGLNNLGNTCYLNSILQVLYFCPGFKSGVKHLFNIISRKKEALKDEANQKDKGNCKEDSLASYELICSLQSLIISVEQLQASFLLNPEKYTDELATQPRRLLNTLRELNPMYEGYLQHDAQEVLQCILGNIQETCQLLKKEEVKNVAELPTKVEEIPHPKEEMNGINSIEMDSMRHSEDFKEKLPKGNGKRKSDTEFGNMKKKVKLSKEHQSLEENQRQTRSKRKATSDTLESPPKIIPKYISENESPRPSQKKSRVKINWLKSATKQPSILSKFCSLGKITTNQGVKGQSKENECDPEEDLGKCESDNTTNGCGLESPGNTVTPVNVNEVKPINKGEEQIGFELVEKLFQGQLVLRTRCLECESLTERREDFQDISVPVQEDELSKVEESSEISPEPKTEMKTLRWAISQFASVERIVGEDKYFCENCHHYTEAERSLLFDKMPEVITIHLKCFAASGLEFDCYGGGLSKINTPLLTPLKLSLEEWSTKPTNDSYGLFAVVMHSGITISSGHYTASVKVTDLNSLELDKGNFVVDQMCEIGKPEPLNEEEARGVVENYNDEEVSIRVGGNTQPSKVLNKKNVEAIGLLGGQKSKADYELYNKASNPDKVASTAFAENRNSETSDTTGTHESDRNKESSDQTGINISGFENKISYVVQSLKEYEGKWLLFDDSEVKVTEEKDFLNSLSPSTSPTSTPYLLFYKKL
The assay is described as above. On the procedure:
as §1

The source of these data is US20080167229A1 (Dana-Farber, published 2008).

B1: Flag-tagged UAF1-Δ507-546 expressed in 293T cells (other)
chain: MAAHHRQNTAGRRKVQVSYVIRDEVEKYNRNGVNALQLDPALNRLFTAGRDSIIRIWSVNQHKQDPYIASMEHHTDWVNDIVLCCNGKTLISASSDTTVKVWNAHKGFCMSTLRTHKDYVKALAYAKDKELVASAGLDRQIFLWDVNTLTALTASNNTVTTSSLSGNKDSIYSLAMNQLGTIIVSGSTEKVLRVWDPRTCAKLMKLKGHTDNVKALLLNRDGTQCLSGSSDGTIRLWSLGQQRCIATYRVHDEGVWALQVNDAFTHVYSGGRDRKIYCTDLRNPDIRVLICEEKAPVLKMELDRSADPPPAIWVATTKSTVNKWTLKGIHNFRASGDYDNDCTNPITPLCTQPDQVIKGGASIIQCHILNDKRHILTKDTNNNVAYWDVLKACKVEDLGKVDFEDEIKKRFKMVYVPNWFSVDLKTGMLTITLDESDCFAAWVSAKDAGFSSPDGSDPKLNLGGLLLQALLEYWPRTHVNPMDEEENEVNHVNGEQENRVQKGNGYPQWVIDITVDKNMPKFNKIPFYLQPHASSGAKTLKKDRLSASDMLQVRKVMEHVYEKIINLDNESQTTSSSNNEKPGEQEKEEDIAVLAEEKIELLCQDQVLDPNMDLRTVKHFIWKSGGDLTLHYRQKS
notes: Deletion of aa 507-546 as printed; not shown: Flag tag
Turning to B1, the binding result in assay [1] and in assay [2] was “no binding” each time.
